The target in the test is T1, BS69CC-MYND (BS69 amino acid 480–602, CC-MYND domain) (Homo sapiens, UniProt Q15326).
T1 construct: The BS69 CC-MYND domain (amino acids 480–602) was amplified from pCI-BS69; GST (N, cleaved yes); 6xHis (N, cleaved yes); made in house; host or cells: E. coli Rosetta 2 (DE3) pLysS
T1 sequence (Q15326 480-602): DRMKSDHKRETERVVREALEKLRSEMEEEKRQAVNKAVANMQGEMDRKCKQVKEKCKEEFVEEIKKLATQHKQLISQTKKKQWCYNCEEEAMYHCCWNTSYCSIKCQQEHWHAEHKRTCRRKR
Nature of the test: Isothermal titration calorimetry (ITC) of EBNA2 peptides and polypeptides binding to BS69CC-MYND. As to conditions: 25°C, mean ± SD of 3 independent experiments; for n value (stoichiometry of BS69CC-MYND/EBNA2 binding, monomeric proteins), one-site model: pH 7.5, polypeptides 19 x 2.0 μl injections into 0.1 mM BS69CC-MYND. An excerpt:
We hypothesised that the impaired gene activation and growth maintenance properties of type 2 EBNA2 may be the result of increased binding to BS69 as a result of the aspartate to serine amino acid difference adjacent to BS69 binding motif 2. […] We used isothermal titration calorimetry (ITC) to determine the affinity of peptide binding to the C-terminal region of BS69 (amino acid 480–602) comprising the CC-MYND domain that we expressed and purified from E.coli (Fig 1B and 1C). […] The difference in binding between type 1 and type 2 EBNA2 motif 2 peptides could be influenced by both the aspartate to serine change and differences in two other amino acids present in the sequence (Fig 1B and 1C).
The BS69 CC-MYND domain (amino acids 480–602) was amplified from pCI-BS69 containing the full length human BS69 sequence (gift from Dr Stéphane Ansieau) and cloned using SLIC into the SmaI and HindIII sites of pET49b+ to generate a construct expressing an N-terminal GST-6x Histidine tag BS69CC-MYND fusion protein (S2 Table).
Four commercially synthesized peptides (Peptide Synthetics) were used for ITC. These included BS69 binding motif 2 of type 1 EBNA2 (435–445) or type 2 EBNA2 (402–412) and putative BS69 binding motif 3 of type 1 EBNA2 (445–455) or type 2 EBNA2 (412–422).
Frozen protein was quickly thawed using running water and dialysed overnight at 4°C using Slide-A-Lyzer MINI Dialysis Units (Thermo Scientific) against ITC buffer (20mM Tris-HCl, 100mM NaCl and 1mM TCEP, pH 7.5). The next day, protein samples were centrifuged at 13000 rpm for 10 mins at 4 °C and the concentration was determined by NanoDrop spectroscopy (NanoDrop Technologies) with their respective molecular weights and extinction coefficients. EBNA2 peptides (1mM) and polypeptides (type 1, 0.3 mM and type 2, 0.6 mM) were titrated against BS69CC-MYND (0.1mM) at 25°C using a MicroCalTM iTC200 instrument (Malvern). For peptides, 13 x 3.0 μl injections were used for titration. For EBNA2 polypeptides 19 x 2.0 μl or 29 x 1.3 μl injections were used for titration. ITC data were corrected for non-specific heat and analysed using MicroCal Origin 7.0. The experiments were performed in triplicate alongside a control experiment with no BS69CC-MYND (buffer only in the cell). All polypeptides were used within 24 hrs of dialysis into ITC buffer.
A general note: ITC needs no label: the signal is the heat of the interaction.

[1] abbreviates: pH 7.5, peptides 13 injections, polypeptides 19 injections.

In the case of YPPSIDPADLD [T1 EBNA2 motif 3], the “KD (dissociation constant), one-site (one event) binding model” value (20mM Tris-HCl, 100mM NaCl, 1mM TCEP, pH 7.5, EBNA2 titrated into 0.1 mM BS69CC-MYND, peptides 1 mM, 13 injections, n fixed to 1, polypeptides 19 x 2.0 μl injections) is reported as “not able to detect any binding”.
A word on the Kd: it is the equilibrium constant for the complex coming apart. Consider “T1 EBNA2_381-445: type 1 EBNA2 polypeptide, amino acids 381–445, expressed and purified from E.coli”, for which the “n value (stoichiometry of BS69CC-MYND/EBNA2 binding, monomeric proteins), one-site model” value stood at 0.42 ± 0.02. The Kd (20mM Tris-HCl, 100mM NaCl, 1mM TCEP, pH 7.5, EBNA2 titrated into 0.1 mM BS69CC-MYND, peptides 1 mM, 13 injections, n fixed to 1, polypeptides 19 x 2.0 μl injections, read-out: KD (dissociation constant), one-site (one event) binding model) was determined as 950 nM. Further, under setting [1], the “-TΔS, one-site model” value came out at 18.4 ± 0.46 kcal/mol; the “ΔG, one-site model” value is listed as -8.22 ± 0.08 kcal/mol; the “ΔH, one-site model” value is on record as -26.6 ± 0.53 kcal/mol. The “n value (stoichiometry of BS69CC-MYND/EBNA2 binding, monomeric proteins), one-site model” value (listed as type 1 EBNA2_381-445) was 0.42.

(Values after PMC6638984, “Increased association between Epstein-Barr virus EBNA2 from type 2 strains and the transcriptional repressor BS69 restricts EBNA2 activity” (PLoS Pathogens, 2019).)
